This is an account of results in paper PMC10774444, “BPG4 regulates chloroplast development and homeostasis by suppressing GLK transcription factors and involving light and brassinosteroid signaling”.

For the data set, the target named is T1, GST-GLK1 (Arabidopsis thaliana, UniProt Q9SIV3 1-420).
T1 sequence: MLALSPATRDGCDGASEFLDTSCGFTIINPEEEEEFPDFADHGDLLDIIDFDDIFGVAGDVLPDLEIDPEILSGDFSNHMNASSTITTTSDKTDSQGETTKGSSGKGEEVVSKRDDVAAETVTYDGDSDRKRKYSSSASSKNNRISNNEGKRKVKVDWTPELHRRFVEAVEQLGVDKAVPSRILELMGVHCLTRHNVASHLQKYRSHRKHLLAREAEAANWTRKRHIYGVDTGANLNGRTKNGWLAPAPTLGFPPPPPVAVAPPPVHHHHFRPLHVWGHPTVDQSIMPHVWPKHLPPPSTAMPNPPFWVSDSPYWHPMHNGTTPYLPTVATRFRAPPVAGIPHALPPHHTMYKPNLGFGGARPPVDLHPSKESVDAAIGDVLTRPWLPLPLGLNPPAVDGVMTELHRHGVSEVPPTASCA
Put plainly: EMSA; without BPG4; GLK1 EMSA: 10 mM Tris-HCl pH 8.0, 50 mM KCl, 10 mM EDTA, 2.5% glycerol, 1 mM DTT, 0.05 ug/ul poly(dI-dC), 5 pmol probe; proteins preincubated on ice 5 min then. To be noted: protein: recombinant; tags: N-term GST (pGEX-6P-3); label: FAM; blunt.

B1: CAO-probe (dsDNA)
DNA 1: TTTAGATCCCATGATTCTCAACACGACTGA
DNA 2: TCAGTCGTGTTGAGAATCATGGGATCTAAA
Take B1: the binding result is “binds”.
